Source: publication PMC10397247

Tests used:
APC8191-AA = biological target: T1, APC8191-AA; assay: two-hybrid library CCmax; settings: mean of both orientations;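 further: natural log of median RNA to DNA barcode read ratio; higher means stronger binding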
T1 chain: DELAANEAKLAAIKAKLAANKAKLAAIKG

APC2237-AA = biological target: T2, APC2237-AA; assay: two-hybrid library CCmax; settings: mean of both orientations;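 further: natural log of median RNA to DNA barcode read ratio; higher means stronger binding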
T2 chain: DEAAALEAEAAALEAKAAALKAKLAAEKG

APC1434-AA = biological target: T3, APC1434-AA; assay: two-hybrid library CCmax; settings: mean of both orientations;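 further: natural log of median RNA to DNA barcode read ratio; higher means stronger binding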
T3 chain: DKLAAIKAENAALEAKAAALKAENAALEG

APC7099-AA = biological target: T4, APC7099-AA; assay: two-hybrid library CCmax; settings: mean of both orientations;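 further: natural log of median RNA to DNA barcode read ratio; higher means stronger binding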
T4 chain: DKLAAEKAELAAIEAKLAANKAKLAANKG

APC6108-AA = biological target: T5, APC6108-AA; assay: two-hybrid library CCmax; settings: mean of both orientations
T5 chain: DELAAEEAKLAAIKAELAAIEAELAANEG

4H2458-AA = biological target: T6, 4H2458-AA; assay: two-hybrid library CCmax; settings: mean of both orientations
T6 chain: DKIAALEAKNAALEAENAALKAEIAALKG

4H3330-AA = biological target: T7, 4H3330-AA; assay: two-hybrid library CCmax; settings: mean of both orientations
T7 chain: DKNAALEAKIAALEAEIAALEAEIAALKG

APC9096-AA = biological target: T8, APC9096-AA; assay: two-hybrid library CCmax; settings: mean of both orientations
T8 chain: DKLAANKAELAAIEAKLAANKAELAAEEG

APC1015-AA = biological target: T9, APC1015-AA; assay: two-hybrid library CCmax; settings: mean of both orientations
T9 chain: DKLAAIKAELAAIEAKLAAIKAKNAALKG

APC5383-AA = biological target: T10, APC5383-AA; assay: two-hybrid library CCmax; settings: mean of both orientations
T10 chain: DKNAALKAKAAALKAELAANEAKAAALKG

APC4011-AA = biological target: T11, APC4011-AA; assay: two-hybrid library CCmax; settings: mean of both orientations
T11 chain: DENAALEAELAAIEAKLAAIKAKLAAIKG

APC232-AA = biological target: T12, APC232-AA; assay: two-hybrid library CCmax; settings: mean of both orientations
T12 chain: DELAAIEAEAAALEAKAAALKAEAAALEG

4H2447-AA = biological target: T13, 4H2447-AA; assay: two-hybrid library CCmax; settings: mean of both orientations
T13 chain: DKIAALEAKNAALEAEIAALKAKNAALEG

4H733-AA = biological target: T14, 4H733-AA; assay: two-hybrid library CCmax; settings: mean of both orientations
T14 chain: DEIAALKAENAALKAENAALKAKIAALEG

4H2290-AA = biological target: T15, 4H2290-AA; assay: two-hybrid library CCmax; settings: mean of both orientations
T15 chain: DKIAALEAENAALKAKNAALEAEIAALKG

APC9319-AA = biological target: T16, APC9319-AA; assay: two-hybrid library CCmax; settings: mean of both orientations
T16 chain: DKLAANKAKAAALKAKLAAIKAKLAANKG

APC8910-AA = biological target: T17, APC8910-AA; assay: two-hybrid library CCmax; settings: mean of both orientations
T17 chain: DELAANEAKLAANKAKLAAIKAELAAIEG

APC2405-AA = biological target: T18, APC2405-AA; assay: two-hybrid library CCmax; settings: mean of both orientations
T18 chain: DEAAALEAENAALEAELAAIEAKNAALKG

4H807-AA = biological target: T19, 4H807-AA; assay: two-hybrid library CCmax; settings: mean of both orientations
T19 chain: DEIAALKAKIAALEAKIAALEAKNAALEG

4H2148-AA = biological target: T20, 4H2148-AA; assay: two-hybrid library CCmax
T20 chain: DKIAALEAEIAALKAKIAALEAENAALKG

APC4264-AA = biological target: T21, APC4264-AA; assay: two-hybrid library CCmax; settings: mean of both orientations
T21 chain: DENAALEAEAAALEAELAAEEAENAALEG

APC3645-AA = biological target: T22, APC3645-AA; assay: two-hybrid library CCmax; settings: mean of both orientations
T22 chain: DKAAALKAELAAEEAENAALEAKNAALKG

4H716-AA = biological target: T23, 4H716-AA; assay: two-hybrid library CCmax; settings: mean of both orientations
T23 chain: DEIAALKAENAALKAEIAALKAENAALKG

APC4436-AA = biological target: T24, APC4436-AA; assay: two-hybrid library CCmax; settings: mean of both orientations
T24 chain: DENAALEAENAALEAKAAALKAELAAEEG

4H2944-bA = biological target: T25, 4H2944-bA; assay: two-hybrid library CCNG1
T25 chain: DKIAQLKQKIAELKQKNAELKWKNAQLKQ

4H491-bA = biological target: T26, 4H491-bA; assay: two-hybrid library CCNG1
T26 chain: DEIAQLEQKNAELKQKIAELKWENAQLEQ

4H2937-bA = biological target: T27, 4H2937-bA; assay: two-hybrid library CCNG1
T27 chain: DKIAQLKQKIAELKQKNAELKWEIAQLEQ

4H342-bA = biological target: T28, 4H342-bA; assay: two-hybrid library CCNG1
T28 chain: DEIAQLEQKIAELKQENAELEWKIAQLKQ

4H2883-bA = biological target: T29, 4H2883-bA; assay: two-hybrid library CCNG1
T29 chain: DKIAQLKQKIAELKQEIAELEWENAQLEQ

4H48-bA = biological target: T30, 4H48-bA; assay: two-hybrid library CCNG1
T30 chain: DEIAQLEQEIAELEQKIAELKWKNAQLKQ

4H883-bA = biological target: T31, 4H883-bA; assay: two-hybrid library CCNG1
T31 chain: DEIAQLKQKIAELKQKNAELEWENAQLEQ

4H908-bA = biological target: T32, 4H908-bA; assay: two-hybrid library CCNG1
T32 chain: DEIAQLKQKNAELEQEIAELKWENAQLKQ

4H607-bA = biological target: T33, 4H607-bA; assay: two-hybrid library CCNG1
T33 chain: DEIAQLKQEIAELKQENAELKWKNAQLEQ

4H953-bA = biological target: T34, 4H953-bA; assay: two-hybrid library CCNG1
T34 chain: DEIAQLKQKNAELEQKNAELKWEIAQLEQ

4H918-bA = biological target: T35, 4H918-bA; assay: two-hybrid library CCNG1
T35 chain: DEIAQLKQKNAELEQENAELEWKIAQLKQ

O10-bS = biological target: T36, O10-bS; assay: two-hybrid library CCNG1
T36 chain: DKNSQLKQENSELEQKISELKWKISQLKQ

4H754-bA = biological target: T37, 4H754-bA; assay: two-hybrid library CCNG1
T37 chain: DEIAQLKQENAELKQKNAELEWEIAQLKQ

4H717-bA = biological target: T38, 4H717-bA; assay: two-hybrid library CCNG1
T38 chain: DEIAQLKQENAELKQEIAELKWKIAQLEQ

4H687-bA = biological target: T39, 4H687-bA; assay: two-hybrid library CCNG1
T39 chain: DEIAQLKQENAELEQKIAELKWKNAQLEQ

P5A-bA = biological target: T40, P5A-bA; assay: two-hybrid library CCNG1
T40 chain: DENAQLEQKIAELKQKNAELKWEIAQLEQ

4H797-bA = biological target: T41, 4H797-bA; assay: two-hybrid library CCNG1
T41 chain: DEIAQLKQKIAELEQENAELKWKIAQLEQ

4H72-bA = biological target: T42, 4H72-bA; assay: two-hybrid library CCNG1
T42 chain: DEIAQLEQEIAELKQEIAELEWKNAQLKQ

4H850-bN = biological target: T43, 4H850-bN; assay: two-hybrid library CCNG1
T43 chain: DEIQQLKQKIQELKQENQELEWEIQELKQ

4H967-bA = biological target: T44, 4H967-bA; assay: two-hybrid library CCNG1
T44 chain: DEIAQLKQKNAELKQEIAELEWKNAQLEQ

4H568-bA = biological target: T45, 4H568-bA; assay: two-hybrid library CCNG1
T45 chain: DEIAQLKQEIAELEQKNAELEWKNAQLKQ

B1: 4H2148-AA (peptide)
chain: DKIAALEAEIAALKAKIAALEAENAALKG
interaction score (APC8191-AA): -1.4
interaction score (APC2237-AA): -1.14
interaction score (APC1434-AA): -1.39
interaction score (APC7099-AA): -1.55
interaction score (APC6108-AA): -1.13
interaction score (4H2458-AA): -1.46
interaction score (4H3330-AA): -0.193
interaction score (APC9096-AA): -1.24
interaction score (APC1015-AA): 0.959
interaction score (APC5383-AA): -1.66
interaction score (APC4011-AA): -0.327
interaction score (APC232-AA): -1.38
interaction score (4H2447-AA): -1.42
interaction score (4H733-AA): -1.59
interaction score (4H2290-AA): -1.47
interaction score (APC9319-AA): -1.42
interaction score (APC8910-AA): -1.35
interaction score (APC2405-AA): -1.19
interaction score (4H807-AA): -1.41
interaction score (4H2148-AA): 1.63
interaction score (APC4264-AA): -1.81
interaction score (APC3645-AA): -1.31
interaction score (4H716-AA): -1.22
interaction score (APC4436-AA): -1.32

B2: 4H2883-bA (peptide)
chain: DKIAQLKQKIAELKQEIAELEWENAQLEQ
interaction score (4H2944-bA): 1.15
interaction score (4H491-bA): -0.886
interaction score (4H2937-bA): 0.793
interaction score (4H342-bA): -0.134
interaction score (4H2883-bA): 0.521
interaction score (4H48-bA): 1.3

B3: 4H568-bA (peptide)
chain: DEIAQLKQEIAELEQKNAELEWKNAQLKQ
interaction score (4H883-bA): 1.54
interaction score (4H908-bA): -1.26
interaction score (4H607-bA): -1.48
interaction score (4H953-bA): -1.16
interaction score (4H918-bA): -0.305
interaction score (O10-bS): -1.27
interaction score (4H754-bA): -0.527
interaction score (4H717-bA): -0.468
interaction score (4H687-bA): -0.587
interaction score (P5A-bA): -1.54
interaction score (4H797-bA): -0.352
interaction score (4H72-bA): -0.657
interaction score (4H850-bN): 0.0841
interaction score (4H967-bA): -0.986
interaction score (4H568-bA): 1.33
